Laboratory results reported in article PMC4964982 (2016).
Bridge positions count the residues as written; N and C are the ends. Square brackets hold non-standard residues; d marks the D form. Ends that are not written are not given here. S5 = C=CCCC[C@](C)(N)C(=O)O

Columns and labels:
Test in all cases: TR-FRET competition with SRC3 fragment
SRC2-SP4 687-697 = molecular target: T1, SRC2-SP4 687-697 (Homo sapiens, UniProt Q15596, staple 3-7)
T1 chain: HK[S5]LHR[S5]LQDS

PFE-SP2 687-697 = molecular target: T2, PFE-SP2 687-697 (Homo sapiens, UniProt Q15596, staple 3-7; also: R to Q substitution, place not given here)
T2 chain: HK[S5]LHR[S5]LQDS

SRC2-WT 687-697 = molecular target: T3, SRC2-WT 687-697 (Homo sapiens, UniProt Q15596)
T3 chain: HKILHRLLQDS

B1: ERα LBD (protein)
chain: NSLALSLTADQMVSALLDAEPPILYSEYDPTRPFSEASMMGLLTNLADRELVHMINWAKRVPGFVDLTLHDQVHLLECAWLEILMIGLVWRSMEHPGKLLFAPNLLLDRNQGKCVEGMVEIFDMLLATSSRFRMMNLQGEEFVCLKSIILLNSGVYTFLSSTLKSLEEKDHIHRVLDKITDTLIHLMAKAGLTLQQQHQRLAQLLLILSHIRHMSNKGMEHLYSMKCKNVVPLYDLLLEMLDAHRLHAPTS
B1 showed an IC50 (SRC2-SP4 687-697) of 390 nM, an IC50 (PFE-SP2 687-697) of 760 nM and an IC50 (SRC2-WT 687-697) of 1100 nM.
